Data: paper PMC12149299
Where two headings read alike, the source gives them in different places.

Biological target: HIV-1 gp120 protein from the BaL.01 strain (HIV-1)
Test: BLI

Binder	Kd [nM]	Kd (biotin (EZ-Link NHS-LC-Biotin) in the competition ELISA only | biotin (EZ-Link NHS-LC-Biotin) in the competition ELISA only) [nM]
VRC01 (protein) chain 1: QVQLVQSGGQMKKPGESMRISCRASGYEFIDCTLNWIRLAPGKRPEWMGWLKPRGGAVNYARPLQGRVTMTRDVYSDTAFLELRSLTVDDTAVYFCTRGKNCDYNWDFEHWGRGTPVIVSS chain 2: EIVLTQSPGTLSLSPGETAIISCRTSQYGSLAWYQQRPGQAPRLVIYSGSTRAAGIPDRFSGSRWGPDYNLTISNLESGDFGVYYCQQYEFFGQGTKVQVD	25.1	–
FD22 (protein) chain 1: QVQLSQSGGGAVQPGKSLTLSCRAYGFHLFSYVVVWVRQTPQNGLEWVAGAASGGWPQEFMNSVRGRFSISRDDYTVSLQMNALRVDDSGLYFCAQERGLHRLDGAVKFGRWFRAWGQGSQVVVTS chain 2: QSALTQPASVSGSPGQSITLSCTGADNSVSWYQVVPGRAPKLLIFEVNVRPSEVSDRFSGSKSGDTASLTISRLQIEDESDYYCVTRRGDVTYLFGSGTRVSVL	–	8.88
